Experiments:
[1] = target: T1, Recombinant human interleukin-34 (IL34) (human, UniProt Q6ZMJ4 21-242); assay: SPR; receptors captured on immobilized anti-human Fc; IL34 injected (18.75, 37.5, 75, 150, 300 nM); T200, 25 °C, PBS pH 7.4 with 0.05% P20; steady-state fitting model; conditions: both partners purified
T1 construct: Interleukin-34, human, recombinant; source: bought: R&D Systems
T1 sequence (looked up): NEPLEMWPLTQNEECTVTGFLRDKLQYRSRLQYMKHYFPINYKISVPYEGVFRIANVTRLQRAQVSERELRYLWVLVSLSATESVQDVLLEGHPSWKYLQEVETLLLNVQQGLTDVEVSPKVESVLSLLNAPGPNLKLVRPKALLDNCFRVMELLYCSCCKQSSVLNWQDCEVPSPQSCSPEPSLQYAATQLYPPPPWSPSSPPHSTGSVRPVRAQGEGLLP

[2] = target: T2, Recombinant human bone morphogenetic protein 4 (BMP4) (human, UniProt P12644 293-408); assay: SPR
T2 chain: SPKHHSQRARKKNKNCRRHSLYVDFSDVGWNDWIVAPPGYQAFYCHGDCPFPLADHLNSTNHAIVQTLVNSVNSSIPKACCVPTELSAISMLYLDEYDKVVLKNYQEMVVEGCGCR

[3] = target: T3, Recombinant human bone morphogenetic protein 7 (BMP7) (human, UniProt P18075 293-431); assay: SPR
T3 chain: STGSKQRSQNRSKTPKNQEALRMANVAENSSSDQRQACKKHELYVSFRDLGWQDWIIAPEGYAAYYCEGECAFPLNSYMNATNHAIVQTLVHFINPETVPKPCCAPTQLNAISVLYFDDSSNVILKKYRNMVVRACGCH

[4] = target: T4, Recombinant human bone morphogenetic protein 2 (BMP2) (human, UniProt P12643 283-396); assay: SPR
T4 chain: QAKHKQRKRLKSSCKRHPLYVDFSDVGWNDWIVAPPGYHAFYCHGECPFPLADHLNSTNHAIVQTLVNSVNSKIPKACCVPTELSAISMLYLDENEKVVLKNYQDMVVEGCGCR

[5] = target: T1, Recombinant human interleukin-34 (IL34); assay: SPR; BMP2, BMP4 or BMP7 immobilised (1500-2300 RU) on CM5-S chip by amine coupling at pH 4.5; IL34 injected in one cycle titration (12.5-200 nM, 60 s, 100 µL/min), 600 s dissociation; T200, 25 °C, PBS pH 7.4 with 0.05% P20; bivalent fitting model; conditions: both partners purified

B1: Human Activin RIIB receptor (ActRIIB) (Fc fusion, UniProt Q13705 19-137, looked up)
chain: SGRGEAETRECIYYNANWELERTNQSGLERCEGEQDKRLHCYASWRNSSGTIELVKKGCWLDDFNCYDRQECVATEENPQVYFCCCEGNFCNERFTHLPEAGGPEVTYEPPPTAPTLLT
notes: Activin receptor type-2B, human recombinant; source: bought: R&D Systems
binding result [1]: binds

B2: Recombinant human interleukin-34 (IL34) (ligand)
chain: NEPLEMWPLTQNEECTVTGFLRDKLQYRSRLQYMKHYFPINYKISVPYEGVFRIANVTRLQRAQVSERELRYLWVLVSLSATESVQDVLLEGHPSWKYLQEVETLLLNVQQGLTDVEVSPKVESVLSLLNAPGPNLKLVRPKALLDNCFRVMELLYCSCCKQSSVLNWQDCEVPSPQSCSPEPSLQYAATQLYPPPPWSPSSPPHSTGSVRPVRAQGEGLLP
koff [2]: 0.0467 s⁻¹ | koff [3]: 0.0561 s⁻¹ | koff [4]: 0.0229 s⁻¹

B3: Recombinant human bone morphogenetic protein 7 (BMP7) (ligand, UniProt P18075 293-431, looked up)
chain: STGSKQRSQNRSKTPKNQEALRMANVAENSSSDQRQACKKHELYVSFRDLGWQDWIIAPEGYAAYYCEGECAFPLNSYMNATNHAIVQTLVHFINPETVPKPCCAPTQLNAISVLYFDDSSNVILKKYRNMVVRACGCH
notes: Bone morphogenetic protein 7, human, recombinant; source: bought: R&D Systems
Kd [5]: 922 nM

B4: Recombinant human bone morphogenetic protein 4 (BMP4) (ligand, UniProt P12644 293-408, looked up)
chain: SPKHHSQRARKKNKNCRRHSLYVDFSDVGWNDWIVAPPGYQAFYCHGDCPFPLADHLNSTNHAIVQTLVNSVNSSIPKACCVPTELSAISMLYLDEYDKVVLKNYQEMVVEGCGCR
notes: Bone morphogenetic protein 4, human, recombinant; source: bought: R&D Systems
Kd [5]: 426 nM

B5: Recombinant human bone morphogenetic protein 2 (BMP2) (ligand, UniProt P12643 283-396, looked up)
chain: QAKHKQRKRLKSSCKRHPLYVDFSDVGWNDWIVAPPGYHAFYCHGECPFPLADHLNSTNHAIVQTLVNSVNSKIPKACCVPTELSAISMLYLDENEKVVLKNYQDMVVEGCGCR
notes: Bone morphogenetic protein 2, human, recombinant; source: bought: R&D Systems
Kd [5]: 363 nM

Source: paper PMC11898274, “Interleukin-34 orchestrates bone formation through its binding to bone morphogenic proteins” (Theranostics, 2025)
